Measurements from patent publication US20260022175A1 (Chugai, published 2026).
Residue numbers refer to the chain shown, from its start. Numbers in names are those of the source.

T1: human FcγRIIb extracellular domain with C-terminal His-tag (human, UniProt P31994 43-217)
T1 construct: extracellular domain; also called hFcγR IIb
T1 sequence (looked up): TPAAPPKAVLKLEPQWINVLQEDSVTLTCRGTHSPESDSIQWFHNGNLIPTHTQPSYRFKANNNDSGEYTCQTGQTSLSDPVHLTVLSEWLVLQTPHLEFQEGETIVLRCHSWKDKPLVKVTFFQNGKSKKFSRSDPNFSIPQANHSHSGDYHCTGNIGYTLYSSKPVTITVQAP

T2: human FcγRIIa R allotype extracellular domain with C-terminal His-tag (human, UniProt P12318 34-217)
T2 construct: extracellular domain; also called hFcγR IIa R
T2 sequence (looked up): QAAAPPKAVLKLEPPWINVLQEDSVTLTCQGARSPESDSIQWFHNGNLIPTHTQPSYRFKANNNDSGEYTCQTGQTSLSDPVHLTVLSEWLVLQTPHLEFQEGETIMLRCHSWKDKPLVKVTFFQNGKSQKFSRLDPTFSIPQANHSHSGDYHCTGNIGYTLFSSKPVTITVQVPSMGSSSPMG

T3: human FcγRIIa H allotype extracellular domain with C-terminal His-tag (human, UniProt P12318 34-217)
T3 construct: extracellular domain; also called hFcγR IIa H
T3 sequence (looked up): T2 sequence (looked up) with R134H

B1: 04H1654-KT462/04L1610-lam1//04H1656-HT445/04L1610-lam1 (antibody, human IgG1, lambda)
heavy 1: QVQLVESGGGVVQPGGSLRLSCAASGFTFSSKTMNWVRQAPGKGLEWVSSISTQSHYIYYARSVRGRFTISRDNAKNSLYLQMNSLRAEDTAVYYCARYGKREDMLWVFDYWGQGTLVTVSSASTKGPSVFPLAPSSKSTSGGTAALGCLVKDYFPEPVTVSWNSGALTSGVHTFPAVLQSSGLYSLSSVVTVPSSSLGTQTYICNVNHKPSNTKVDKRVEPKSCDKTHTCPPCPAPEFQWGPMVFLFPPKPKDVLMISRTPEVTCVVVDVSDEEPEVKFNWYVDGVEVHNAKTKPREEQYNATYRVVSVLPVLHQDWLNGKEYKCKVSNDALPAPIEKTISKAKGQPREPQVYTLPPSRKEMTKNQVSLTCLVKGFYPSDIAVEWESNGQPENNYKTTPPVLDSDGSFFLYSKLTVDKSRWQQGNVFSCSVMHEALHNHYTQKSLSLSP
heavy 2: QVQLVESGGGVVQPGGSLRLSCAASGFTFSSKTMNWVRQAPGKGLEWVSSISTQSHYIYYAESVRGRFTISRDNAKNSLYLQMNSLRAEDTAVYYCARYGAREDMLWVFDYWGQGTLVTVSSASTKGPSVFPLAPSSKSTSGGTAALGCLVKDYFPEPVTVSWNSGALTSGVHTFPAVLQSSGLYSLSSVVTVPSSSLGTQTYICNVNHKPSNTKVDKRVEPKSCDKTHTCPPCPAPELLAGPSVFLFPPKPKDVLMISRTPEVTCVVVDVSHEEPEVKFNWYVDGVEVHNAKTKPREEQYNATYRVVSVLPVLHQDWLNGKEYKCKVSNDALPKPDEETISKAKGQPREPQVYTLPPSREEMTKNQVSLTCLVKGFYPSDIAVEWESNGQPENNYKTTPPVLDSDGSFFLYSKLTVDKSRWQQGNVFSCSVMHEALHNHYTQESLSLSP
light: QSALTQPPSASGSPGQSVTISCEGPSTGVGDYNWVHWYQQHPGKAPKLMIYFTSKKPSGVPDRFSGSKSGNTASLTVSGLQAEDEADYYCQTYAAPLGPMFGGGTKLTVLGQPKAAPSVTLFPPSSEELQANKATLVCLISDFYPGAVTVAWKADSSPVKAGVETTTPSKQSNNKYAASSYLSLTPEQWKSHRSYSCQVTHEGSTVEKTVAPTECS
notes: Heterodimerized antibody, IGHG1*03 constant region, E356K / K439E
B2: 04H1654-KT481/04L1612-lam1//04H1656-HT498/04L1612-lam1 (antibody)
heavy 1: B1 heavy 1 with I337E, N439A, Y441T, Q443R, S445E
heavy 2: B1 heavy 2 with K335A, D337E, N439A, Y441T, Q443R, S445E
light: B1 light with N33T, W34Y
notes: Heterodimerized antibody with N434A/Y436T/Q438R/S440E
B3: 04H1654-KT481/04L1610-lam1//04H1656-HT498/04L1610-lam1 (antibody)
heavy 1: B1 heavy 1 with I337E, N439A, Y441T, Q443R, S445E
heavy 2: B1 heavy 2 with K335A, D337E, N439A, Y441T, Q443R, S445E
light: B1 light
notes: as for B2
B4: 04H1654-KT462/04L1612-lam1//04H1656-HT445/04L1612-lam1 (antibody, human IgG1, lambda)
heavy 1: B1 heavy 1
heavy 2: B1 heavy 2
light: B1 light with N33T, W34Y
notes: Heterodimerized antibody
B5: 04H1654-KT473/04L1612-lam1//04H1656-HT482/04L1612-lam1 (antibody)
heavy 1: B1 heavy 1 with N439A, Y441T, Q443R, S445E
heavy 2: B1 heavy 2 with N439A, Y441T, Q443R, S445E
light: B1 light with N33T, W34Y
notes: as for B2
B6: 04H1654-KT473/04L1610-lam1//04H1656-HT482/04L1610-lam1 (antibody)
heavy 1: B1 heavy 1 with N439A, Y441T, Q443R, S445E
heavy 2: B1 heavy 2 with N439A, Y441T, Q443R, S445E
light: B1 light
notes: Heterodimerized antibody with N434A/Y436T/Q438R/S440E; also called SW1610-ART6+ACT1
B7: 04H1654-KT461/04L1612-lam1//04H1656-HT443/04L1612-lam1 (antibody, human IgG1, lambda)
heavy 1: B1 heavy 1 with I337E
heavy 2: B1 heavy 2 with K335A, D337E
light: B1 light with N33T, W34Y
notes: Heterodimerized antibody
B8: 04H1654-KT461/04L1610-lam1//04H1656-HT443/04L1610-lam1 (antibody, human IgG1, lambda)
heavy 1: B1 heavy 1 with I337E
heavy 2: B1 heavy 2 with K335A, D337E
light: B1 light
notes: Heterodimerized antibody

Biological target: T1, human FcγRIIb extracellular domain with …
Test: SPR; binding amount divided by that of 04H1637-G1m/04L1610-lam1

Relative binding amount | Binder
3.1 | B1
2.8 | B2
2.7 | B3
3.4 | B4
3.2 | B5
3.2 | B6
3.1 | B7
3.1 | B8

Biological target: T4, human FcRn (human, UniProt P55899 24-290; P61769 21-119)
T4 construct: Prepared by the method of WO 2010/107110; also called hFcRn
Test: SPR Biacore T200, Ab captured via Fab-lambda, pH 6.0, 25C, steady state
Description: The interaction between the generated antibodies and human FcRn was analyzed by the following method using Biacore T200. 50 mM Na-Phosphate, 150 mM NaCl, 0.05% Tween20 (pH 6.0) was used as the running buffer, and the assay was performed at 25° C. For the sensor chip, Series S SA (GE Healthcare) chips onto which CaptureSelect Human Fab-lambda Kinetics Biotin Conjugate (Thermo Fisher Scientific) was immobilized were used. The antibodies of interest were captured onto these chips and FcRn diluted in the running buffer was allowed to interact with them. Chips were regenerated with 10 mM Glycine-HCl (pH 1.5) and 25 mM NaOH, and assay was performed by repeatedly capturing antibodies. The dissociation constant for FcRn of each antibody was calculated using the steady state model, using Biacore T200 Evaluation Software 2.0.

Kd | Binder
1500 nM | B1
600 nM | B2
570 nM | B3
1600 nM | B4
620 nM | B5
580 nM | B6
1600 nM | B7
1500 nM | B8

Biological target: T2, human FcγRIIa R allotype extracellular …
Test: SPR Biacore T200, Ab captured via Fab-lambda, pH 7.4, 25C;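 note: antibodies captured on a streptavidin chip carrying biotinylated anti-Fab-lambda, with each FcγR injected as analyte in phosphate buffer. KD fitted by 1:1 Langmuir or steady-state model depending on receptor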
Description: (§1) The interaction between the generated antibodies and human FcγRs was analyzed by the following method using Biacore T200. 50 mM Na-Phosphate, 150 mM NaCl, 0.05% Tween20 (pH 7.4) was used as the running buffer, and the assay was performed at 25° C. For the sensor chips, Series S SA (GE Healthcare) chips onto which CaptureSelect Human Fab-lambda Kinetics Biotin Conjugate (Thermo Fisher Scientific) was immobilized were used. The antibodies of interest were captured onto these chips and each FcγR diluted in the running buffer was allowed to interact with them. Chips were regenerated with 10 mM Glycine-HCl (pH 1.5) and 25 mM NaOH, and assay was performed by repeatedly capturing antibodies. The dissociation constants KD (mol/L) for FcγRs of each antibody were calculated using Biacore T200 Evaluation Software 2.0, using the 1:1 Langmuir binding model for FcγRIa and FcγRIIIa and the steady state affinity model for FcγRIIa. For FcγRIIb, the binding amount of FcγRIIb per unit amount of antibody was calculated by correcting the binding amount of FcγRIIb obtained from the sensorgram obtained by the measurement with the amount of antibody captured onto the chip surface.

Kd | Binder
160 nM | B1
270 nM | B2
260 nM | B3
140 nM | B4
150 nM | B5
150 nM | B6
250 nM | B7
240 nM | B8

Biological target: T5, human FcγRIIIa V allotype extracellular domain with C-terminal His-tag (human, UniProt P08637 17-208)
T5 construct: extracellular domain; also called hFcγR IIIa V
Test: as above
Description: as §1

T5 sequence (P08637 17-208 F176V): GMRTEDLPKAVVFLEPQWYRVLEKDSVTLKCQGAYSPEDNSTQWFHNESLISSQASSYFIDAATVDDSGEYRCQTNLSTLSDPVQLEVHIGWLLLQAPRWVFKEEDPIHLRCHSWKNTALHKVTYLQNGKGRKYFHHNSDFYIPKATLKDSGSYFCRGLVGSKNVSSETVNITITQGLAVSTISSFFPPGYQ

Kd | Binder
2.2 nM | B1
1.7 nM | B2
1.6 nM | B3
2.3 nM | B4
2.2 nM | B5
2.1 nM | B6
1.5 nM | B7
1.5 nM | B8

Biological target: T3, human FcγRIIa H allotype extracellular …
Test: as above
Description: as §1

Kd | Binder
110 nM | B1
230 nM | B2
230 nM | B3
91 nM | B4
91 nM | B5
81 nM | B6
210 nM | B7
200 nM | B8

Biological target: T6, human FcγRIIIa F allotype extracellular domain with C-terminal His-tag (human, UniProt P08637 17-208)
T6 construct: extracellular domain; also called hFcγR IIIa F
Test: as above
Description: as §1

T6 sequence (P08637 17-208): as the sequence (P08637 17-208 F176V) above, with V160F counted along it

Kd | Binder
3.3 nM | B1
2.9 nM | B2
2.8 nM | B3
3.4 nM | B4
3.9 nM | B5
3.8 nM | B6
2.6 nM | B7
2.6 nM | B8

Biological target: T7, human FcγRIa extracellular domain with C-terminal His-tag (human, UniProt P12314 16-292)
T7 construct: extracellular domain; also called hFcγR Ia; hFcγRIa
Test: as above
Description: as §1

T7 sequence (P12314 16-292): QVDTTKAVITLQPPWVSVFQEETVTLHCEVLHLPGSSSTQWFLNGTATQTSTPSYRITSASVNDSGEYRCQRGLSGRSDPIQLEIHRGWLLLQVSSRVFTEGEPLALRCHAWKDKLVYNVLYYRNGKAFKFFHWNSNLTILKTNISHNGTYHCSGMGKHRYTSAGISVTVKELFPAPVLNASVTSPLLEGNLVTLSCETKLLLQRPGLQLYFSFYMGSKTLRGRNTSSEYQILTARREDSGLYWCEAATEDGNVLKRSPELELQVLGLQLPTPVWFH

Kd | Binder
0.03 nM | B1
0.043 nM | B2
0.033 nM | B3
0.041 nM | B4
0.048 nM | B5
0.046 nM | B6
0.039 nM | B7
0.032 nM | B8

Biological target: T2, human FcγRIIa R allotype extracellular …
Test: SPR; KD of 04H1637-G1m/04L1610-lam1 divided by KD of variant;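 note: biacore T200 SPR at 25 °C, antibodies captured on anti-Fab-lambda SA chip with receptor as analyte, running buffer pH 7.4 for FcγRs and pH 6.0 for FcRn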

Relative value to KD between G1m and hFcγRs | Binder
13 | B1
7.6 | B2
7.7 | B3
14.2 | B4
13.8 | B5
13.9 | B6
8.2 | B7
8.4 | B8

Biological target: T5, human FcγRIIIa V allotype extracellular …
Test: as above

Relative value to KD between G1m and hFcγRs | Binder
110 | B1
145 | B2
152 | B3
106 | B4
110 | B5
115 | B6
159 | B7
156 | B8

Biological target: T3, human FcγRIIa H allotype extracellular …
Test: as above

Relative value to KD between G1m and hFcγRs | Binder
13.9 | B1
6.4 | B2
6.5 | B3
16.1 | B4
16.2 | B5
18 | B6
7.1 | B7
7.3 | B8

Biological target: T6, human FcγRIIIa F allotype extracellular …
Test: as above

Relative value to KD between G1m and hFcγRs | Binder
415 | B1
479 | B2
495 | B3
408 | B4
355 | B5
363 | B6
537 | B7
526 | B8

Biological target: T4, human FcRn
Test: as above

Relative value to KD between G1m and hFcRn | Binder
0.9 | B1
2.2 | B2
2.3 | B3
0.8 | B4
2.1 | B5
2.3 | B6
0.8 | B7
0.9 | B8

Biological target: T7, human FcγRIa extracellular domain with …
Test: as above

Relative value to KD between G1m and hFcγRs | Binder
1.6 | B1
1.1 | B2
1.5 | B3
1.2 | B4
1 | B5
1.1 | B6
1.3 | B7
1.5 | B8

Biological target: T1, human FcγRIIb extracellular domain with …
Test: SPR; FcγRIIb at 1000 nM, bound amount per unit captured Ab
Description: as §1

Binding amount | Binder
0.025 | B1
0.022 | B2
0.022 | B3
0.028 | B4
0.026 | B5
0.026 | B6
0.025 | B7
0.025 | B8
